Laboratory results taken from patent publication US20220098306A1 (Xencor, published 2022).

How the values were obtained:
CD28-Fc-His protein = biological target: T1, CD28-Fc-His protein (human, UniProt P10747 19-152); test: Octet (BLI), CD28-Fc-His on HIS1K biosensors, 1:1 Langmuir and steady state fits
T1 construct: Captured on anti-HIS (HIS1K) biosensors; also called CD28 antigen; not shown: Fc; His tag
From the text: (§1) To investigate whether the difference observed for XENP34339 resulted from the difference in B7H3 binding domain or the difference in bispecific antibody format, the component binding domains of XENP34339 and XENP34389 were biophysically characterized using Octet. […] Anti-mouse Fc biosensors were used to capture mouse Fc fusions of B7H3, either the full extracellular V1C1-[…] domain or the individual V1C1 or V2C2 domains, and dipped into multiple concentrations of XENP34717 or XENP34728. Kinetic analyses were performed by global fitting of binding data with a 1:1 Langmuir binding model. […] Next, the binding affinities of the CD28 binding domains for CD28 antigen in the 2+1 CLC format and the 2+1 Fab2-scFv-Fc format was investigated. Anti-HIS capture (HIS1K) biosensors were used to capture CD28-Fc-His protein and dipped into multiple concentrations of XENP34339 or XENP34389. Kinetic analyses were performed by global fitting of binding data with a 1:1 Langmuir binding model as well as steady state model. The resulting dissociation constant (KD) are depicted in FIG. 53.

[1] = biological target: T2, mouse Fc fusion of B7H3, full extracellular V1C1-V2C2 domain (human, UniProt Q5ZPR3 29-466); test: Octet (BLI), B7H3 mouse Fc fusions on anti-mouse Fc biosensors, 1:1 Langmuir fit
T2 construct: extracellular domain; Fusions of the single V1C1 and V2C2 domains were tested as well; also called B7H3 antigen; printed 'V1C1-V2V2'; not shown: mouse Fc
T2 sequence (looked up): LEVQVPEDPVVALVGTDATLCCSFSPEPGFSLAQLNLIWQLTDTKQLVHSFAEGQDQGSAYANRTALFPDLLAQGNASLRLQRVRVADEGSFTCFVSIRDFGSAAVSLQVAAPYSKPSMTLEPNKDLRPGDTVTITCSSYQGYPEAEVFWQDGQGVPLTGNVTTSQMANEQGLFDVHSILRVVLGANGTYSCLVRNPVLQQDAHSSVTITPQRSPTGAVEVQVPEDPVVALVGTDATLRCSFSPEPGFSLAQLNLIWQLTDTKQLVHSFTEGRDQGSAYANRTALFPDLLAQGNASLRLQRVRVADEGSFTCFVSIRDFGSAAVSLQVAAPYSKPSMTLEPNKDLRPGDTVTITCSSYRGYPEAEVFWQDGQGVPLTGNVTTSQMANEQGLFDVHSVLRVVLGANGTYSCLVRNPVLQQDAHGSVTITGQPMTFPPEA
From the text: as §1

B1: XENP34389 (bispecific antibody)
heavy 1: EVQLLESGGGLVQPGGSLRLSCAASGFTFSNYYMAWVRQAPGKGLEWVSSISTGGGSTYYRDSVKGRFTISRDNSKSTLYLQMNSLRAEDTAVYYCTTDLSAIAATPFAYWGQGTLVTVSSASTKGPSVFPLAPSSKSTSGGTAALGCLVKDYFPEPVTVSWNSGALTSGVHTFPAVLQSSGLYSLSSVVTVPSSSLGTQTYICNVNHKPSDTKVDKKVEPKSCDKTHTCPPCPAPPVAGPSVFLFPPKPKDTLMISRTPEVTCVVVDVKHEDPEVKFNWYVDGVEVHNAKTKPREEEYNSTYRVVSVLTVLHQDWLNGKEYKCKVSNKALPAPIEKTISKAKGQPREPQVYTLPPSREEMTKNQVSLTCDVSGFYPSDIAVEWESDGQPENNYKTTPPVLDSDGSFFLYSKLTVDKSRWEQGDVFSCSVMHEALHNHYTQKSLSLSPGK
heavy 2: not shown
light: DIQMTQSPSSLSASVGDRVTITCRASQNIYTSLAWYQQKPGKAPKLLIYNAHSLQTGIPSRFSGSGSGADFTLTISSLQPEDFATYFCQQYYSGLTFGSGTKLEIKRTVAAPSVFIFPPSDEQLKSGTASVVCLLNNFYPREAKVQWKVDNALQSGNSQESVTEQDSKDSTYSLSSTLTLSKADYEKHKVYACEVTHQGLSSPVTKSFNRGEC
notes: 2+1 Fab2-scFv-Fc; also called B7H3 x CD28 in 2+1 Fab2-scFv-Fc format; copies: 1 + 1 + 2
CD28-Fc-His protein
  binding result: binds

B2: XENP34717 (bispecific antibody)
heavy 1: EVQLLESGGGLVQPGGSLRLSCAASGFTFSSYYMSWVRQAPGKGLEWVSTISESGDSTYYADSVKGRFTISRDNSKNTLYLQMNSLRAEDTAVYYCAKSGPGLRQVGFDYWGQGTLVTVSSASTKGPSVFPLAPSSKSTSGGTAALGCLVKDYFPEPVTVSWNSGALTSGVHTFPAVLQSSGLYSLSSVVTVPSSSLGTQTYICNVNHKPSDTKVDKKVEPKSCDKTHTCPPCPAPPVAGPSVFLFPPKPKDTLMISRTPEVTCVVVDVKHEDPEVKFNWYVDGVEVHNAKTKPREEEYNSTYRVVSVLTVLHQDWLNGKEYKCKVSNKALPAPIEKTISKAKGQPREPQVYTLPPSREEMTKNQVSLTCDVSGFYPSDIAVEWESDGQPENNYKTTPPVLDSDGSFFLYSKLTVDKSRWEQGDVFSCSVMHEALHNHYTQKSLSLSPGK
heavy 2: QVQLVQSGAEVKKPGASVKVSCKASGYIFTNNYMHWVRQAPGQGLEWMGIISPSVGRTAYAQKFQGRVTMTRDTSTSTVYMELSSLRSEDTAVYYCARGGGSSPRLDYWGQGTLVTVSSASTKGPSVFPLAPSSKSTSGGTAALGCLVKDYFPEPVTVSWNSGALTSGVHTFPAVLQSSGLYSLSSVVTVPSSSLGTQTYICNVNHKPSNTKVDKKVEPKSCDKTHTCPPCPAPPVAGPSVFLFPPKPKDTLMISRTPEVTCVVVDVKHEDPEVKFNWYVDGVEVHNAKTKPREEQYNSTYRVVSVLTVLHQDWLNGKEYKCKVSNKALPAPIEKTISKAKGQPREPQVYTLPPSREQMTKNQVKLTCLVKGFYPSDIAVEWESNGQPENNYKTTPPVLDSDGSFFLYSKLTVDKSRWQQGNVFSCSVMHEALHNHYTQKSLSLSPGK
light: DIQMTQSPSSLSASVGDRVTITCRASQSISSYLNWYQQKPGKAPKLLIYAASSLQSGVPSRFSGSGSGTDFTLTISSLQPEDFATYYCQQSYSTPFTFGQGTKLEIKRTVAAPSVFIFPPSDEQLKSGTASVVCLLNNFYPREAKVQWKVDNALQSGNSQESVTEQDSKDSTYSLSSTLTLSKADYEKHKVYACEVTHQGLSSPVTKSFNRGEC
notes: copies: 1 + 1 + 2
[1]
  binding result: binds
